{"source": "patent US20260325600A1", "about": "“FORMULATIONS FOR INTRAOCULAR DELIVERY OF PEPTIDES DERIVED FROM TYPE IV COLLAGEN” (ASCLEPIX THERAPEUTICS, INC., priority 2022, published 2026)", "key": {"[1]": {"settings": "aqueous solution administered into vitreous from animals and people; cited from earlier work"}, "[2]": {"experiment": "In vitro gel formation in mock vitreous and homogenization", "assay_type": "physicochemical", "protocol": "In alternative embodiments, microparticles can be prepared and fragmented. For example, a vitreous-like solution (“mock vitreous”) was prepared with sodium hyaluronate and used for in vitro pre-fragmented gel formation experiments. The AXT107 peptide solution is added to the mock vitreous, upon which the peptide forms a gel."}}, "data": [{"sequence": "LRRFSTAPFAFIDINDVINF [AXT107]", "values": [{"measurement": "gel formation in vitreous", "setting": "[1]", "value": "precipitate to form a gel-like substance"}, {"measurement": "product of homogenization of gel", "setting": "[2]; gels homogenized after formation in mock vitreous", "value": "suspended microparticles comparable to those formed in excipient formulation with mixing"}, {"measurement": "gel formation in mock vitreous", "setting": "[2]; mock vitreous with sodium hyaluronate", "value": "forms a gel"}]}]}
